Laboratory results reported in the supplement of paper PMC7125110.
± gives the standard error. Variants at the floor of the assay were thinned out.

B1: glmS ribozyme (parent)
chain: AUAAAAGCGCCAGAACUACAGAAAUGUAGUUGACGAGGAGGAGGUUUAUCGAAUUUUCGGCGGAUGCCUCCAAA

Key:
Settings in all cases: with glucosamine-6-phosphate
glucosamine-6-phosphate [1] = variants of: B1; experiment: self-cleavage kobs at 160 uM GlcN6P; higher = faster cleavage; RNA array
Method in brief: (§1)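 Tracking of barcoded ribozyme variants used a hybridised Cy3 probe at 37 °C, after in situ transcription by E. coli RNA polymerase on sequenced MiSeq chips. The flowed solution held 40 μM to 10 mM glucosamine-6-phosphate in HEPES/KCl/Mg(OAc)2 buffer, and imaging ran over ~14 h. kobs was taken from exponential decay fits of normalised per-tile medians, and kcat and KM from weighted Michaelis–Menten fits.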

glucosamine-6-phosphate [2] = variants of: B1; experiment: self-cleavage kobs at 640 uM GlcN6P; higher = faster cleavage; RNA array
Method in brief: as §1

glucosamine-6-phosphate [3] = variants of: B1; experiment: self-cleavage kobs at 2500 uM GlcN6P; higher = faster cleavage; RNA array
Method in brief: as §1

glucosamine-6-phosphate [4] = variants of: B1; experiment: self-cleavage kobs at 10000 uM GlcN6P; higher = faster cleavage; RNA array
Method in brief: as §1

Variant	self-cleavage kobs at 160 uM GlcN6P (glucosamine-6-phosphate [1]) [s⁻¹]	self-cleavage kobs at 640 uM GlcN6P (glucosamine-6-phosphate [2]) [s⁻¹]	self-cleavage kobs at 2500 uM GlcN6P (glucosamine-6-phosphate [3]) [s⁻¹]	self-cleavage kobs at 10000 uM GlcN6P (glucosamine-6-phosphate [4]) [s⁻¹]
AUAAAAACGCCAGAACUACAGAAAUGUAGUUGACGAGGAGGAGGUUUAUCGAAUUUUCGGCGGACGCCUCCAAA	< 1e-05	< 1e-05	< 1e-05	< 1e-05
AUAAAAACGCCAGAACUACAGAAAUGUAGUCGACGAGGAGGAGGUUUAUCGAAUUUUCGGCGGAUGCCUCCAAA	< 1e-05	< 1e-05		
AUAAAUGCGCAUGAACUACAGAAAUGUAGUUGAGGAGGAGGAGGUUUAUUGAAUGUUCGGCGGAUGCCUCCAAA	< 1e-05	< 1e-05	< 1e-05	
AUAAAUGCGCAAGAACUACAGAAAUGUAGUUGACGAGGAGGAGGUUUAUCGAAUUUUCGGCGGAUGCCUCCAAA	< 1e-05	< 1e-05	< 1e-05	
AUAAAACGGCCAGAACUACAGAAAUGUAGUUGACGAGGAGGAGGUUUAUCGGAUUUUCGGCGGAUGCCUCCAAA	< 1e-05	< 1e-05	< 1e-05	
AUAAAUGCGCCAGAACUACAGAAAUGUAGUUGACGAGGAGGAGGUUUAUCGAAUUUUCGGCGGAGGCCUUCAAA	< 1e-05	< 1e-05		
AUAAAUGCGGCAGAACUACAGAAAUGUAGUUGACGAGGAGGAGGUUUAUCGAAUUUUCGGCGGAUGCUUCCAAA	< 1e-05			
AUAAAAACGCCAGAACUACAGAAAUGUAGCUGACGAGGAGGAGGUUUAUCGAAUUUUCGGCGGCUGCCUCCAAA	< 1e-05	< 1e-05	< 1e-05	
AUAAAUGCGCCAGAACUACAGAAAUGUAGUUGACGAGUAGGAUGUUUAUCGAAUUUUCGGCGGAUGCCUCCAAA	< 1e-05		< 1e-05	
AUAAAAACGCCAGAACUACAGAAAUGUAGGUGACGAGGAGGAGGUUUAUCGAAUUUUCGGCGGAUGCCUCCAAA	< 1e-05		< 1e-05	
AUAAAAACGCCAGAACUACAGAAAUGUAGUUGACGAGGAGGAGGUUUAUCGAAGUUUCGGCGGAUGCCUCCAAA	< 1e-05			4.41e-05 ± 1.5e-05
AUAAAACCGGCAGAACUACAGAAAUGUAGUUGACGAGGAGGAGGUUUAUCGAAUUUUCGGCGGAUGCCUUCAAA	< 1e-05			< 1e-05
AUAAAAACGCCAGAACUACAGAAAUGUAGUUGACGAAGAGGAGGUUUAUCGAAUUUUCGGCGGAUGCCUCCAAA	< 1e-05	< 1e-05		< 1e-05
AUAAAAACGCCAGAACUACAGAAAUGUAGUUGACGAGGAGGACGUUUAUCGAAUUUUCGGCGGAUGCCUCUAAA	< 1e-05	< 1e-05		
AUAAAUGCGCCAGAACUACAGAAAUGUAGUUGACGAGGAGGAGGUUUCUCGAAUUUGCGGCGGAUGCCUCCAAA	< 1e-05			
AUAAAUGCGCCAGAACUACAGAAAUGUAGUUGACGAGUAGGAGGUUUAUCGAAUUUUCGCCGGAUGCCUCCAAA	< 1e-05			
AUAAAUGCGGCAGAACUACAGAAAUGUAGUUGACGCGGAGGAGGUUUAUCGAAUUUUCGGCGGAUGCCUCCAAA	< 1e-05		< 1e-05	
